The term Ki denotes a dissociation constant, usually derived from enzyme kinetics or from competition with a known ligand. High values mean weaker binding, low ones tighter binding. As usually defined, the Km is the concentration of substrate that gives half-maximal velocity.

Data on 3 molecules can be found in article PMC9367181 (Chemico-Biological Interactions, 2022).

For one series, the target named is T1, human carboxylesterase 1 (Homo sapiens, UniProt P23141).
T1 sequence (P23141 18-567): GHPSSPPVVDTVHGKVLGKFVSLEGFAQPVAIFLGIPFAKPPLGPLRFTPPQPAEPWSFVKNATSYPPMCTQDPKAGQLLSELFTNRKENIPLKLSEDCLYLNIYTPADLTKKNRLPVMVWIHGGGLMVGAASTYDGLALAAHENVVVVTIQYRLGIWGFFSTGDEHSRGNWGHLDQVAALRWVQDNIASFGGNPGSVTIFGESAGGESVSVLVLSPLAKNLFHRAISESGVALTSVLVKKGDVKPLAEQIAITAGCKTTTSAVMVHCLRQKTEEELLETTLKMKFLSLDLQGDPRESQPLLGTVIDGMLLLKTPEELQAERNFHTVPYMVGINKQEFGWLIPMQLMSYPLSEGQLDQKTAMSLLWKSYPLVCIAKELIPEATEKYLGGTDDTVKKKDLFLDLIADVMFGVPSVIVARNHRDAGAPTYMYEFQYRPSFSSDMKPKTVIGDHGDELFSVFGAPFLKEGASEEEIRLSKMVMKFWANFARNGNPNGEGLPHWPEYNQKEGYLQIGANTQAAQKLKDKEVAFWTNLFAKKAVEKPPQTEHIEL
The series is described as follows: inhibition of remdesivir hydrolysis in CES1-expressing cell S9 fraction, HPLC. In kind it is biochemical.

Substrate in series [1]: CCC(CC)COC(=O)[C@H](C)N[P@](=O)(OC[C@H]1O[C@@](C#N)(c2ccc3c(N)ncnn23)[C@H](O)[C@@H]1O)Oc1ccccc1
The series is described as follows: Michaelis-Menten kinetics of hydrolysis to GS-704277 in S9 fraction, HPLC. In kind it is biochemical, Homo sapiens.

With `C=C(C)[C@@H]1CCC(C)=C[C@H]1c1c(O)cc(CCCCC)cc1O` [cannabidiol], the Ki at human carboxylesterase 1 was determined as 890 nM.

B1: human carboxylesterase 1 (Homo sapiens) (protein)
chain: GHPSSPPVVDTVHGKVLGKFVSLEGFAQPVAIFLGIPFAKPPLGPLRFTPPQPAEPWSFVKNATSYPPMCTQDPKAGQLLSELFTNRKENIPLKLSEDCLYLNIYTPADLTKKNRLPVMVWIHGGGLMVGAASTYDGLALAAHENVVVVTIQYRLGIWGFFSTGDEHSRGNWGHLDQVAALRWVQDNIASFGGNPGSVTIFGESAGGESVSVLVLSPLAKNLFHRAISESGVALTSVLVKKGDVKPLAEQIAITAGCKTTTSAVMVHCLRQKTEEELLETTLKMKFLSLDLQGDPRESQPLLGTVIDGMLLLKTPEELQAERNFHTVPYMVGINKQEFGWLIPMQLMSYPLSEGQLDQKTAMSLLWKSYPLVCIAKELIPEATEKYLGGTDDTVKKKDLFLDLIADVMFGVPSVIVARNHRDAGAPTYMYEFQYRPSFSSDMKPKTVIGDHGDELFSVFGAPFLKEGASEEEIRLSKMVMKFWANFARNGNPNGEGLPHWPEYNQKEGYLQIGANTQAAQKLKDKEVAFWTNLFAKKAVEKPPQTEHIEL
Consider B1, for which the Km in series [1] came to 14.19 µM.

B2: human carboxylesterase 1 (Homo sapiens; G143E) (protein)
chain: GHPSSPPVVDTVHGKVLGKFVSLEGFAQPVAIFLGIPFAKPPLGPLRFTPPQPAEPWSFVKNATSYPPMCTQDPKAGQLLSELFTNRKENIPLKLSEDCLYLNIYTPADLTKKNRLPVMVWIHGGELMVGAASTYDGLALAAHENVVVVTIQYRLGIWGFFSTGDEHSRGNWGHLDQVAALRWVQDNIASFGGNPGSVTIFGESAGGESVSVLVLSPLAKNLFHRAISESGVALTSVLVKKGDVKPLAEQIAITAGCKTTTSAVMVHCLRQKTEEELLETTLKMKFLSLDLQGDPRESQPLLGTVIDGMLLLKTPEELQAERNFHTVPYMVGINKQEFGWLIPMQLMSYPLSEGQLDQKTAMSLLWKSYPLVCIAKELIPEATEKYLGGTDDTVKKKDLFLDLIADVMFGVPSVIVARNHRDAGAPTYMYEFQYRPSFSSDMKPKTVIGDHGDELFSVFGAPFLKEGASEEEIRLSKMVMKFWANFARNGNPNGEGLPHWPEYNQKEGYLQIGANTQAAQKLKDKEVAFWTNLFAKKAVEKPPQTEHIEL
Take B2: in series [1], the Km was 93.94 µM.
